Experimental data taken from patent publication US10005846.

Columns and labels:
[1] = molecular target: cynomolgus monkey TG2 (cynomolgus monkey); assay: ELISA on immobilised cynomolgus monkey TG2; r2 0.9586; EC50 95% confidence range 0.09303 to 0.4223 [panel A]
[2] = molecular target: cynomolgus monkey TG2 (cynomolgus monkey); assay: ELISA on immobilised cynomolgus monkey TG2; r2 0.9994; EC50 95% confidence range 0.3762 to 0.4603 [panel A]
[3] = molecular target: human transglutaminase type 2 (TG2) (human) (UniProt P21980); assay: ELISA on immobilised human TG2; r2 0.9588; EC50 95% confidence range 0.06801 to 0.2396 [panel A]
[4] = molecular target: human transglutaminase type 2 (TG2) (human) (UniProt P21980); assay: ELISA on immobilised human TG2; r2 0.9991; EC50 95% confidence range 0.3291 to 0.4396 [panel A]
[5] = molecular target: human transglutaminase type 2 (TG2) (human) (UniProt P21980)
[6] = molecular target: cynomolgus monkey TG2 (cynomolgus monkey)

human transglutaminase type 2 (TG2) (human), sequence (P21980 whole entry): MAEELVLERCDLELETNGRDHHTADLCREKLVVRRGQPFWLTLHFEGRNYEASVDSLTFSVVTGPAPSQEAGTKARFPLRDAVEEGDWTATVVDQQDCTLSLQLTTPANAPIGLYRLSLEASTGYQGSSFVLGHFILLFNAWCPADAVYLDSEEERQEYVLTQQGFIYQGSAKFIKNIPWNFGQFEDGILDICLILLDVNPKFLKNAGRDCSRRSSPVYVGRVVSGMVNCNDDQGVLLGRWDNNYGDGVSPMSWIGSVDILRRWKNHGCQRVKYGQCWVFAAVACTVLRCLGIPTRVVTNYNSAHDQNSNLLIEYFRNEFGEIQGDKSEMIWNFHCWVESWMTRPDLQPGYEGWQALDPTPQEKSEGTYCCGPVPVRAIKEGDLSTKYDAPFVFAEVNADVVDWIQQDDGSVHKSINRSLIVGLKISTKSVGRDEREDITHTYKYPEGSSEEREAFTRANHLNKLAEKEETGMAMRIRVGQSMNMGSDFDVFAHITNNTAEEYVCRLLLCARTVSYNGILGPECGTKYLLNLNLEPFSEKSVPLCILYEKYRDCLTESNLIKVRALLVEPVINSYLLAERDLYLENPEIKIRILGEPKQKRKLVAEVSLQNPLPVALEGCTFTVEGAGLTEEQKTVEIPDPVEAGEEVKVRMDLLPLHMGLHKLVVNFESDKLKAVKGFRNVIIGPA
cynomolgus monkey TG2 (cynomolgus monkey), sequence (chain, as listed by the source): as the sequence (P21980 whole entry) above, with E4D, Q157R, N177S, H413S, I421T, Y528H, V542I counted along it

Substance: CUB7402 commercial anti-TG2 antibody
- EC50 [1]: 0.198 nM
- EC50 [2]: 0.416 nM
- EC50 [3]: 0.128 nM
- EC50 [4]: 0.38 nM
- IC50 of enzymatic inhibition, dansylated lysine incorporation into N,N-dimethylated casein [continued), panel F] [5]: > 100 nM
- IC50 of enzymatic inhibition, dansylated lysine incorporation into N,N-dimethylated casein [panel B] [6]: > 100 nM
